Assay results reported in the supplement of paper PMC10126150.
± gives the standard deviation of the averaged measurements.

Test system: ATP
Test: switch fluorescence ratio, 500 uM ATP over buffer (Cy3 cluster intensity, sum of 5 cycles each) (fold (ratio)); higher = stronger signal-on switching upon ATP binding; sequences stand for … in TCGTCGGCAGCGTCAGATGTGTATAAGAGACAGTTTTTTTTTTTTTTTTTTTTTTTTT…TC
Details: aptamer strand: ATP DNA aptamer (quencher-CACCTGGGGGAGTATTGCGGAGGAAGG + anchor), 100 nM annealed; ATP concentration: 500 uM
In short: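 Imaging in selection buffer was followed by imaging after 15 min with 500 uM ATP at 22 °C, for Cy3-labelled switching-strand clusters annealed to 100 nM quencher-labelled ATP aptamer on a modified Illumina MiSeq flow-cell. Five of these buffer/ATP cycles ran, separated by NaOH stripping and re-annealing. The fluorescence ratio per cluster is summed target-cycle over summed buffer-cycle Cy3 intensity, averaged per switch-domain sequence; clusters outside 100-1000 RFU were removed.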
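Further: ATP exposure 15 min at 22 °C before imaging.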

Sequence | switch fluorescence ratio
CGATTAGTTA | 0.998 ± 0.023
CGATTATCTT | 1.01 ± 0.011
CGATTATGTA | 0.9667 ± 0.0078
CGATTCAACG | 1.02 ± 0.012
CGATTGGAGT | 0.9864 ± 0.0058
CGATTGGGGC | 0.992 ± 0.013
CGATTGGGTC | 0.999 ± 0.013
CGATTGTGGG | 0.9962 ± 0.0092
CGATTTAGAG | 0.988 ± 0.019
CGATTTAGCT | 0.988 ± 0.037
CGATTTCCTA | 0.987 ± 0.015
CGCACGAGGC | 1.23 ± 0.05
CGCAGCCAGG | 3.33 ± 0.27
CGCATAGCTT | 1.12 ± 0.021
CGCATCGTAA | 1.074 ± 0.0044
CGCATGGAGT | 1.04 ± 0.015
CGCATGGCCT | 1.04 ± 0.072
CGCATGTAAC | 3.43 ± 0.81
CGCATGTTTT | 1.06 ± 0.1
CGCATTGGGG | 1.13 ± 0.037
CGCATTGTGA | 1.02 ± 0.063
CGCCAAATG | 1.033 ± 0.0019
CGCCAACAAC | 1.78 ± 0.036

Sequence | switch fluorescence ratio
CGCCAGGGGA | 1.43 ± 0.59
CGCCGAAGGG | 0.98523 ± 0.00014
CGCCGGACAT | 1.04 ± 0.0027
CGCCGGGGAT | 1.004 ± 0.002
CGCCGGTTGG | 0.997 ± 0.014
CGCCGTCTCA | 1.02 ± 0.042
CGCCGTTGCG | 0.989 ± 0.065
CGCCTAACGA | 1.08 ± 0.024
CGCCTGACAC | 1.26 ± 0.0035
CGCCTTTACA | 1.02 ± 0.029
CGCCTTTACC | 1.18 ± 0.013
CGCGACAACA | 0.999 ± 0.031
CGCGAGAATA | 1.01 ± 0.084
CGCGAGATAT | 1.03 ± 0.043
CGCGAGGACT | 1.27 ± 0.11
CGCGATCTGT | 1.18 ± 0.046
CGCGCCGGGC | 1.03 ± 0.057
CGCGCCTATC | 1.11 ± 0.02
CGCGCTACTT | 1.73 ± 0.039
CGCGGAACTG | 1.09 ± 0.016
CGCGGACACG | 1.01 ± 0.048
CGCGGGAAAA | 1.01 ± 0.099
CGCGGGAATG | 1.05 ± 0.033

Sequence | switch fluorescence ratio
CGCGGGGGGG | 1 ± 0.025
CGCGGTGTCC | 1.02 ± 0.011
CGCGTCAACG | 1.01 ± 0.027
CGCGTCATGA | 1.02 ± 0.0043
CGCGTCTGGG | 1.01 ± 0.042
CGCGTGATGG | 1 ± 0.021
CGCGTGATTT | 1.06 ± 0.058
CGCGTGGCTG | 1 ± 0.019
CGCGTGGGGG | 1.03 ± 0.081
CGCGTTGTTG | 1.03 ± 0.012
CGCTAATTGG | 1.09 ± 0.014
CGCTACGGTT | 1.042 ± 0.0016
CGCTAGGGTG | 1.115 ± 0.0032
CGCTAGGTGT | 2.33 ± 0.76
CGCTATATGG | 1.32 ± 0.047
CGCTCATTTG | 0.97 ± 0.016
CGCTCTAATA | 1.058 ± 0.01
CGCTGAATTT | 0.975 ± 0.03
CGCTGAGTGC | 1.08 ± 0.034
CGCTGGATGG | 0.985 ± 0.0075
CGCTGGGGGC | 1.03 ± 0.016
CGCTGGTGGG | 1.01 ± 0.029
CGCTGTATCG | 0.996 ± 0.043

Sequence | switch fluorescence ratio
CGCTGTCACG | 1.0556 ± 0.00068
CGCTTAAAGT | 1.03 ± 0.05
CGCTTAGATT | 0.997 ± 0.025
CGCTTCCGGG | 1.37 ± 0.059
CGCTTCGGTT | 0.963 ± 0.032
CGCTTCTGGG | 0.98 ± 0.011
CGCTTGAAAT | 1.05 ± 0.018
CGCTTGTTCG | 1.01 ± 0.027
CGCTTTCTTT | 1.03 ± 0.041
CGCTTTGATA | 0.991 ± 0.03
CGGAAACAAA | 1.01 ± 0.075
CGGAAACGTG | 1.01 ± 0.028
CGGAACAGCA | 1.08 ± 0.051
CGGAAGCGGG | 1.02 ± 0.038
CGGAAGGAAG | 0.946 ± 0.036
CGGAAGGGAG | 0.996 ± 0.015
CGGAAGTGTG | 0.981 ± 0.039
CGGAAGTTAT | 1.01 ± 0.04
CGGAATATGG | 1.0484 ± 0.001
CGGAATTTCC | 1.09 ± 0.048
CGGACACTTT | 1.019 ± 0.0091
CGGACAGGAG | 0.98 ± 0.051
CGGACCAAGG | 1 ± 0.077

Sequence | switch fluorescence ratio
CGGACCATTT | 1.04 ± 0.024
CGGACTAGCG | 0.944 ± 0.032
CGGAGAGAGC | 0.993 ± 0.011
CGGAGATGGC | 1.05 ± 0.038
CGGAGCGCGT | 0.991 ± 0.019
CGGAGGAGCA | 0.968 ± 0.061
CGGAGGCGGT | 1.02 ± 0.047
CGGAGGGAGG | 0.928 ± 0.091
CGGAGGGTAC | 1.61 ± 0.08
CGGAGTGGGG | 1.01 ± 0.012
CGGAGTTTTG | 1.01 ± 0.027
CGGATACGCC | 1.09 ± 0.028
CGGATATGGT | 1 ± 0.013
CGGATGCGGT | 1.013 ± 0.0075
CGGATGGGGG | 1.01 ± 0.046
CGGATGGGTG | 0.996 ± 0.021
CGGATGGTCA | 1.013 ± 0.0099
CGGATGTTAT | 0.9626 ± 0.0096
CGGATTAGGG | 1 ± 0.022
CGGATTCCCC | 1.06 ± 0.011
CGGATTCGAG | 0.98 ± 0.035
CGGATTGGGA | 1.002 ± 0.0026
CGGATTTGGG | 0.957 ± 0.067

Sequence | switch fluorescence ratio
CGGCAACGGT | 1.01 ± 0.011
CGGCAAGTGC | 2.19 ± 1
CGGCAGTATG | 1.02 ± 0.011
CGGCAGTGTG | 1.01 ± 0.048
CGGCATAGAT | 1.04 ± 0.029
CGGCATGAGG | 0.972 ± 0.018
CGGCCAACGC | 1.17 ± 0.028
CGGCCATCGG | 0.9978 ± 0.0049
CGGCCGAGAG | 1.02 ± 0.018
CGGCCGAGGA | 0.978 ± 0.01
CGGCCGGGGA | 1.14 ± 0.19
CGGCCGTACG | 1.01 ± 0.019
CGGCCTGTTG | 1.01 ± 0.026
CGGCGAATAT | 1.024 ± 0.0011
CGGCGATCGC | 1.04 ± 0.011
CGGCGATGGG | 1.11 ± 0.069
CGGCGGGCTT | 1.02 ± 0.018
CGGCGGGTTT | 1.02 ± 0.049
CGGCGTGTTT | 1.052 ± 0.0087
CGGCTAAAGA | 0.976 ± 0.011
CGGCTCCCGC | 1.046 ± 0.0084
CGGCTGAATT | 1 ± 0.003
CGGCTGGTGG | 1.02 ± 0.016

Sequence | switch fluorescence ratio
CGGCTGTACG | 1.07 ± 0.022
CGGCTTACTT | 1.07 ± 0.011
CGGCTTGGTG | 0.996 ± 0.048
CGGCTTTCCC | 1.01 ± 0.028
CGGCTTTGGA | 1.056 ± 0.0019
CGGGAAATAG | 1.06 ± 0.02
CGGGAAGGCC | 0.98791 ± 0.00011
CGGGAATCCT | 1.11 ± 0.04
CGGGAATTAA | 0.997 ± 0.03
CGGGAATTAG | 1.01 ± 0.035
CGGGACGGGC | 1.04 ± 0.043
CGGGAGAGTT | 0.996 ± 0.065
CGGGAGCG | 1.03 ± 0.022
CGGGAGGTAA | 0.9863 ± 0.0038
CGGGATAGGG | 0.977 ± 0.026
CGGGATGACA | 0.979 ± 0.046
CGGGATGATT | 0.998 ± 0.044
CGGGATGGAG | 0.9879 ± 0.0062
CGGGATTTAG | 1 ± 0.014
